The target in assay [1] is SCFM, stem cell factor V49L F63L double mutant, soluble (UniProt P21583). The experiment in a line: small angle X-ray scattering; purified SCFWT and SCFM at 3 or 5 mg/mL (193 or 322 µM), 25 °C; radius of gyration compared with that of the theoretical monomer and dimer from PDB 1SCF.
In assay [2] the target is T1, recombinant c-Kit (R&D Systems) (UniProt P10721 26-524).
T1 construct: c-Kit receptor tyrosine kinase, recombinant; No catalogue number printed; the discussion calls it 'recombinant soluble c-Kit'; also called surface-immobilized c-Kit; recombinant soluble c-Kit; source: bought: R&D Systems
The experiment in a line: SPR; ProteOn XPR36; c-Kit amine-coupled to a GLC chip; SCF proteins flowed in PBST at 100 µL/min, 25 °C; KD from the equilibrium-binding phase, 1:1 Langmuir model; BSA channel subtracted. Particulars: both partners purified. A general note: SPR reads the build-up and loss of mass on a sensor chip optically.

T1 sequence (P10721 26-524): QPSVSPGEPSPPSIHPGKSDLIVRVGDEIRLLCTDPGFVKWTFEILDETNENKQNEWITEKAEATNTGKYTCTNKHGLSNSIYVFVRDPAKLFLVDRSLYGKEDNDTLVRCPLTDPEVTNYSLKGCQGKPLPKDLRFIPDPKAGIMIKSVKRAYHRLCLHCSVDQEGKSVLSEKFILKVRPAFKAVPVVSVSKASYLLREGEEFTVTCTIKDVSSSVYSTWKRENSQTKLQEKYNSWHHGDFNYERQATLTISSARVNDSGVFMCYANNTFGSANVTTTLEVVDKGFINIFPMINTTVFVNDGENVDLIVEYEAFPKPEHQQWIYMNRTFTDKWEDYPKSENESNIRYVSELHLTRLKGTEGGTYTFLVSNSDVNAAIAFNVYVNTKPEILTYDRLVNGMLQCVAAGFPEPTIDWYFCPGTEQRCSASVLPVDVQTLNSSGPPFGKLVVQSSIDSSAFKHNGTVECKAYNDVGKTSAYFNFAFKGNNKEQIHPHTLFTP

For orientation: stoichiometry N means the number of molecules, sites or subunits per partner or assembly. In assay [1], “SCFM, stem cell factor V49L F63L double mutant, soluble (from UniProt P21583 26-214) (ligand)” showed a stoichiometry N of 2.

B1: SCF_(M,K91E), soluble (ligand, UniProt P21583 26-214, looked up)
chain: EGICRNRVTNNVKDVTKLVANLPKDYMITLKYVPGMDVLPSHCWISEMLVQLSDSLTDLLDKLSNISEGLSNYSIIDKLVNIVDDLVECVEENSSKDLKKSFKSPEPRLFTPEEFFRIFNRSIDAFKDFVVASETSDCVVSSTLSPEKDSRVSVTKPFMLPPVAASSLRNDSSSSNRKAKNPPGDSSLH
notes: stem cell factor (SCF), SCFM (V49L, F63L) with K91E, selected from the first-generation yeast display library; source: purified in non-glycosylated form (production described in the Supplementary Materials)
What is called Kd is the concentration at which binding is half-saturated. On to B1, for which the Kd in assay [2] is 88.9 nM.

B2: SCF_(M,K91E,L98R), soluble (ligand, UniProt P21583 26-214, looked up)
chain: EGICRNRVTNNVKDVTKLVANLPKDYMITLKYVPGMDVLPSHCWISEMLVQLSDSLTDLLDKLSNISEGLSNYSIIDKLVNIVDDLVECVEENSSKDRKKSFKSPEPRLFTPEEFFRIFNRSIDAFKDFVVASETSDCVVSSTLSPEKDSRVSVTKPFMLPPVAASSLRNDSSSSNRKAKNPPGDSSLH
notes: stem cell factor (SCF), SCFM (V49L, F63L) with K91E and L98R, selected from the second-generation yeast display library; also called SCF_(K91E,L98R); source: purified in non-glycosylated form (production described in the Supplementary Materials)
For the molecule B2, the Kd in assay [2] worked out at 40.7 nM.

B3: SCF_(M,S64P,F126S,V131A,E134G,V139I), soluble (ligand, UniProt P21583 26-214, looked up)
chain: EGICRNRVTNNVKDVTKLVANLPKDYMITLKYVPGMDVLPSHCWISEMLVQLSDSLTDLLDKLPNISEGLSNYSIIDKLVNIVDDLVECVKENSSKDLKKSFKSPEPRLFTPEEFFRIFNRSIDASKDFVAASGTSDCIVSSTLSPEKDSRVSVTKPFMLPPVAASSLRNDSSSSNRKAKNPPGDSSLH
notes: stem cell factor (SCF), SCFM (V49L, F63L) with S64P, F126S, V131A, E134G and V139I, selected from the first-generation yeast display library; also called SCFM,N; source: purified in non-glycosylated form (production described in the Supplementary Materials)
On to B3, for which, in assay [2], the Kd was found to be 74.4 nM.

The record behind these values is PMC7588011, “Engineering Stem Cell Factor Ligands with Different c-Kit Agonistic Potencies” (Molecules, 2020).
